Assay [1] concerns the target T1, murine PCSK9, V5- and His-tagged (mPCSK9v5His) (murine, UniProt Q80W65 35-694).
T1 construct: also called mouse PCSK9; not shown: V5 and His tags
Briefly: SPR (Biacore 2000), Fab captured on anti-Fab IgG, PCSK9 in flow; mean N=3.

The target in assay [2] is T1, murine PCSK9, V5- and His-tagged …. Briefly: cell-based or functional assay.
Assay [3] has the same target. Briefly: SPR (Biacore 2000), IgG captured on goat anti-human IgG, PCSK9 in flow; mean N=2. A general note: SPR reads the build-up and loss of mass on a sensor chip optically.
Experimental: A goat Anti-Human IgG (Caltag, catalog #H10700) was covalently coupled to surfaces 1 and 2 of a Sensor Chip CM5 via primary amine groups, using the immobilization wizard with the “Aim for immobilization” option using Biacore™ Amine Coupling Kit (cat #BR-1000-50. A target immobilization of 5000 RU was specified. The wizard uses a 7 minute activation with a 1:1 mixture of 100 mM NHS (N-Hydroxysuccinimide) and 400 mM EDC (1-ethyl-3-(3-dimethylaminopropyl)-carbodiimide), injects the ligand in several pulses to achieve the desired level, then deactivates the remaining surface with a 7 minute pulse of ethanolamine.
IgG was captured by flowing a 10 nM solution at 10 μl/min for 1-1.5 minutes to reach a target RL for an Rₘₐₓ of 100-150 RU for the reaction. 5-10 concentrations of hPCSK9v5His or mPCSK9v5His antigens were flowed across the surface at 30 or 60 μl/minute for 4 minutes. 15-60 minutes dissociation time was allowed before regeneration of the Anti-IgG surface with a 60 second pulse of 10 mM Glycine pH 1.7.
The target of assay [4] is T2, human PCSK9, V5- and His-tagged (hPCSK9v5His) (human, UniProt Q8NBP7 31-692).
T2 construct: Recombinant secreted protein; Peptides 31-49 (prodomain) and 153-; also called wt-hPCSK9; wt-PCSK9; not shown: V5 and His tags
T2 sequence (Q8NBP7 31-692 limits assumed): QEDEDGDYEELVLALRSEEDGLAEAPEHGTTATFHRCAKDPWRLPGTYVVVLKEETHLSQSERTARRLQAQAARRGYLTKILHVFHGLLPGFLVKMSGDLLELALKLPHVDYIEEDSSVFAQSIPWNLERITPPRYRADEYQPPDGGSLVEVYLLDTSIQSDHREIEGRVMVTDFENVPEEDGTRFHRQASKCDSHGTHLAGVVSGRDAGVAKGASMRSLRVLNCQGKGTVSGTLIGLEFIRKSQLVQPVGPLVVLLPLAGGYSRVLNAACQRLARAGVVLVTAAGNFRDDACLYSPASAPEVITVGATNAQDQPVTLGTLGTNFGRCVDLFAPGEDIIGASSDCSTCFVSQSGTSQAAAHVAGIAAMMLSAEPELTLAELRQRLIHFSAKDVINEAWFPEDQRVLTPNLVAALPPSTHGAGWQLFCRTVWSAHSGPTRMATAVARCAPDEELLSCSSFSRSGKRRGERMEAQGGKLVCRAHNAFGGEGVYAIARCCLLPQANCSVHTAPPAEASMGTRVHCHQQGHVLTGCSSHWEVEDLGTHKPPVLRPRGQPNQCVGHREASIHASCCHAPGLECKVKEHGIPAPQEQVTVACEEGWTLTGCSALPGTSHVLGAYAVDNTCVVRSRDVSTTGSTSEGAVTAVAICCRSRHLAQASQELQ
Briefly: SPR (Bio-Rad ProteOn), Fab against human PCSK9-V5-His.

The target in assay [5] is T1, murine PCSK9, V5- and His-tagged …. Kind of assay: kinetic constants of 1B20 Fab; method not named at the table (presumably SPR as in Example 6).

T1 sequence (Q80W65 35-694 limits assumed): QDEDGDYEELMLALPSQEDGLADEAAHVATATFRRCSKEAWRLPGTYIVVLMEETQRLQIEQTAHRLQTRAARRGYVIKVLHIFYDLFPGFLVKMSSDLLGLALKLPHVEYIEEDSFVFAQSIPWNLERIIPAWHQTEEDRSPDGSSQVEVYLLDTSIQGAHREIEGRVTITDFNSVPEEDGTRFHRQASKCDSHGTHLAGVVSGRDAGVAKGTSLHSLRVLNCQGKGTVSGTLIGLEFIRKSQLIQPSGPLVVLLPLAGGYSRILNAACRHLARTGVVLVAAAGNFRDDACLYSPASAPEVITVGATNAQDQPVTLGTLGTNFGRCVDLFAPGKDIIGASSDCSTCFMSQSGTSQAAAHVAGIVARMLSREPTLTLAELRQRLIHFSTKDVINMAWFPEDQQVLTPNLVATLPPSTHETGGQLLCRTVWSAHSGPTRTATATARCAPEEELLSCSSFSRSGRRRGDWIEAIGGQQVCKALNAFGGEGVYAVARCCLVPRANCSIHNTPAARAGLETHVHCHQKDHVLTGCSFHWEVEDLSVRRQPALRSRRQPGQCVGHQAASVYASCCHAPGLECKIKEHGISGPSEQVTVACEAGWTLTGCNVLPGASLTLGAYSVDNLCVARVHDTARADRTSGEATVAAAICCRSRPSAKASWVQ

B1: m2CX1D05 Fab (Fab, V domains shown)
VH: QVQLVQSGAEVKKPGSSVKVSCKASGGTFNSHAISWVRQAPGQGLEWMGGINPILGIANYAQKFQGRVTITADESTSTAYMELSSLRSEDTAVYYCARHYEIQIGRYGMNVYYLMYRFASWGQGTLVTVSS
VL: DIQMTQSPSSLSASVGDRVTITCRASQGIRSALNWYQQKPGKAPKLLIYNGSTLQSGVPSRFSGSGSGTDFTLTISSLQPEDFAVYYCQQFDGDPTFGQGTKVEIKR
notes: also called Fab 1D05; mPCSK9 2CX1D05 Fab
Take B1: the Kd (as a rule, the constant that tells how readily two partners part at equilibrium) in assay [1] was found to be 3.35 nM. In addition, the “IC50, inhibition of PCSK9-dependent loss of cellular LDL uptake (Exopolar assay, HEK cells, PCSK9 5 ug/ml)” value in assay [2] stood at 97 nM.

B2: 1D05 IgG2m4 (antibody, V domains shown)
VH: QVQLVQSGAEVKKPGSSVKVSCKASGGTFNSHAISWVRQAPGQGLEWMGGINPILGIANYAQKFQGRVTITADESTSTAYMELSSLRSEDTAVYYCARHYEIQIGRYGMNVYYLMYRFASWGQGTLVTVSS
VL: DIQMTQSPSSLSASVGDRVTITCRASQGIRSALNWYQQKPGKAPKLLIYNGSTLQSGVPSRFSGSGSGTDFTLTISSLQPEDFAVYYCQQFDGDPTFGQGTKVEIKR
notes: also called M2CX1D05 (IgG); IgG 1D05
Regarding B2, the Kd in assay [3] is 3.2 nM. The “IC50, inhibition of PCSK9-dependent loss of cellular LDL uptake (Exopolar assay, HEK cells, PCSK9 5 ug/ml)” value in assay [2] is 85 nM.

B3: 1D05 Fab variant M48L (Fab, V domains shown)
VH: QVQLVQSGAEVKKPGSSVKVSCKASGGTFNSHAISWVRQAPGQGLEWLGGINPILGIANYAQKFQGRVTITADESTSTAYMELSSLRSEDTAVYYCARHYEIQIGRYGMNVYYLMYRFASWGQGTLVTVSS
VL: DIQMTQSPSSLSASVGDRVTITCRASQGIRSALNWYQQKPGKAPKLLIYNGSTLQSGVPSRFSGSGSGTDFTLTISSLQPEDFAVYYCQQFDGDPTFGQGTKVEIKR
notes: Tested as a Fab, with only the heavy chain mutated
With B3, the dissociation constant Kd in assay [4] came out at 1.52 nM.

B4: 1D05 Fab variant N50Y (Fab, V domains shown)
VH: QVQLVQSGAEVKKPGSSVKVSCKASGGTFNSHAISWVRQAPGQGLEWMGGINPILGIANYAQKFQGRVTITADESTSTAYMELSSLRSEDTAVYYCARHYEIQIGRYGMNVYYLMYRFASWGQGTLVTVSS
VL: DIQMTQSPSSLSASVGDRVTITCRASQGIRSALNWYQQKPGKAPKLLIYYGSTLQSGVPSRFSGSGSGTDFTLTISSLQPEDFAVYYCQQFDGDPTFGQGTKVEIKR
notes: Tested as a Fab, with only the light chain mutated
Turning to B4, the affinity in assay [4], expressed as Kd, was 2.58 nM.

B5: 1D05 Fab variant N50D (Fab, V domains shown)
VH: QVQLVQSGAEVKKPGSSVKVSCKASGGTFNSHAISWVRQAPGQGLEWMGGINPILGIANYAQKFQGRVTITADESTSTAYMELSSLRSEDTAVYYCARHYEIQIGRYGMNVYYLMYRFASWGQGTLVTVSS
VL: DIQMTQSPSSLSASVGDRVTITCRASQGIRSALNWYQQKPGKAPKLLIYDGSTLQSGVPSRFSGSGSGTDFTLTISSLQPEDFAVYYCQQFDGDPTFGQGTKVEIKR
notes: as for B4
In turn, B5 gave a Kd in assay [4] of 3.42 nM.

B6: 1D05 Fab variant H32Y (Fab, V domains shown)
VH: QVQLVQSGAEVKKPGSSVKVSCKASGGTFNSYAISWVRQAPGQGLEWMGGINPILGIANYAQKFQGRVTITADESTSTAYMELSSLRSEDTAVYYCARHYEIQIGRYGMNVYYLMYRFASWGQGTLVTVSS
VL: DIQMTQSPSSLSASVGDRVTITCRASQGIRSALNWYQQKPGKAPKLLIYNGSTLQSGVPSRFSGSGSGTDFTLTISSLQPEDFAVYYCQQFDGDPTFGQGTKVEIKR
notes: Site-directed mutant of 1D05, tested as a Fab, with only the heavy chain mutated
Regarding B6, the Kd in assay [4] stood at 2.01 nM.

B7: 1D05 Fab variant N50Q (Fab, V domains shown)
VH: QVQLVQSGAEVKKPGSSVKVSCKASGGTFNSHAISWVRQAPGQGLEWMGGINPILGIANYAQKFQGRVTITADESTSTAYMELSSLRSEDTAVYYCARHYEIQIGRYGMNVYYLMYRFASWGQGTLVTVSS
VL: DIQMTQSPSSLSASVGDRVTITCRASQGIRSALNWYQQKPGKAPKLLIYQGSTLQSGVPSRFSGSGSGTDFTLTISSLQPEDFAVYYCQQFDGDPTFGQGTKVEIKR
notes: as for B4
In assay [4], B7 came in with a Kd of 0.615 nM.

B8: 1D05 Fab variant N50T (Fab, V domains shown)
VH: QVQLVQSGAEVKKPGSSVKVSCKASGGTFNSHAISWVRQAPGQGLEWMGGINPILGIANYAQKFQGRVTITADESTSTAYMELSSLRSEDTAVYYCARHYEIQIGRYGMNVYYLMYRFASWGQGTLVTVSS
VL: DIQMTQSPSSLSASVGDRVTITCRASQGIRSALNWYQQKPGKAPKLLIYTGSTLQSGVPSRFSGSGSGTDFTLTISSLQPEDFAVYYCQQFDGDPTFGQGTKVEIKR
notes: as for B4
In assay [4], B8 gave a Kd of 2.13 nM.

B9: 1D05 Fab variant M48A (Fab, V domains shown)
VH: QVQLVQSGAEVKKPGSSVKVSCKASGGTFNSHAISWVRQAPGQGLEWAGGINPILGIANYAQKFQGRVTITADESTSTAYMELSSLRSEDTAVYYCARHYEIQIGRYGMNVYYLMYRFASWGQGTLVTVSS
VL: DIQMTQSPSSLSASVGDRVTITCRASQGIRSALNWYQQKPGKAPKLLIYNGSTLQSGVPSRFSGSGSGTDFTLTISSLQPEDFAVYYCQQFDGDPTFGQGTKVEIKR
notes: as for B3
In assay [4], B9 yielded a dissociation constant (Kd) of 2.06 nM.

B10: 1D05 Fab variant M48V (Fab, V domains shown)
VH: QVQLVQSGAEVKKPGSSVKVSCKASGGTFNSHAISWVRQAPGQGLEWVGGINPILGIANYAQKFQGRVTITADESTSTAYMELSSLRSEDTAVYYCARHYEIQIGRYGMNVYYLMYRFASWGQGTLVTVSS
VL: DIQMTQSPSSLSASVGDRVTITCRASQGIRSALNWYQQKPGKAPKLLIYNGSTLQSGVPSRFSGSGSGTDFTLTISSLQPEDFAVYYCQQFDGDPTFGQGTKVEIKR
notes: as for B3
In assay [4], B10 came in with a Kd of 1.95 nM.

B11: 1D05 Fab variant M48L/M109L/M115L (Fab, V domains shown)
VH: QVQLVQSGAEVKKPGSSVKVSCKASGGTFNSHAISWVRQAPGQGLEWLGGINPILGIANYAQKFQGRVTITADESTSTAYMELSSLRSEDTAVYYCARHYEIQIGRYGLNVYYLLYRFASWGQGTLVTVSS
VL: DIQMTQSPSSLSASVGDRVTITCRASQGIRSALNWYQQKPGKAPKLLIYNGSTLQSGVPSRFSGSGSGTDFTLTISSLQPEDFAVYYCQQFDGDPTFGQGTKVEIKR
notes: as for B3
As for B11, binding in assay [4] was put at a Kd of 1.13 nM.

B12: 1D05 Fab variant H99Y (Fab, V domains shown)
VH: QVQLVQSGAEVKKPGSSVKVSCKASGGTFNSHAISWVRQAPGQGLEWMGGINPILGIANYAQKFQGRVTITADESTSTAYMELSSLRSEDTAVYYCARYYEIQIGRYGMNVYYLMYRFASWGQGTLVTVSS
VL: DIQMTQSPSSLSASVGDRVTITCRASQGIRSALNWYQQKPGKAPKLLIYNGSTLQSGVPSRFSGSGSGTDFTLTISSLQPEDFAVYYCQQFDGDPTFGQGTKVEIKR
notes: as for B3
Consider B12, for which the Kd in assay [4] was 1.45 nM.

B13: 1B20 Fab (Fab, V domains shown)
VH: QVQLVQSGAEVKKPGESLKISCKGSGYSFTNYWISWVRQMPGKGLEWMGIIYPGDSYTNYSPSFQGQVTISADKSISTAYLQWSSLKASDTAMYYCARDYWYKPLFDIWGQGTLVTVSS
VL: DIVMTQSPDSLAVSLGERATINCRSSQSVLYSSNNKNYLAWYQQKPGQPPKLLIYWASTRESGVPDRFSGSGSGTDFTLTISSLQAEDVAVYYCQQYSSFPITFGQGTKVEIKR
B13: in assay [2], the “IC50, Exopolar assay (PCSK9-dependent loss of cellular LDL uptake)” value was 152 nM. Further, in assay [5], the Ka worked out at 2e+09 M⁻¹; the Kd amounted to 0.51 nM; the koff – broadly, a measure of how fast the partners let go of each other – was 7.18e-05 s⁻¹; the on-rate constant (kon) (as a rule, the second-order rate constant of association) was found to be 141000 M⁻¹ s⁻¹.

The record behind these values is patent US20120301461A1 (Merck Sharp & Dohme, published 2012).
